Biological target: T1, endogenous IRF7 of HEK293 cells (human (endogenous in HEK293)), Q92985
T1 chain: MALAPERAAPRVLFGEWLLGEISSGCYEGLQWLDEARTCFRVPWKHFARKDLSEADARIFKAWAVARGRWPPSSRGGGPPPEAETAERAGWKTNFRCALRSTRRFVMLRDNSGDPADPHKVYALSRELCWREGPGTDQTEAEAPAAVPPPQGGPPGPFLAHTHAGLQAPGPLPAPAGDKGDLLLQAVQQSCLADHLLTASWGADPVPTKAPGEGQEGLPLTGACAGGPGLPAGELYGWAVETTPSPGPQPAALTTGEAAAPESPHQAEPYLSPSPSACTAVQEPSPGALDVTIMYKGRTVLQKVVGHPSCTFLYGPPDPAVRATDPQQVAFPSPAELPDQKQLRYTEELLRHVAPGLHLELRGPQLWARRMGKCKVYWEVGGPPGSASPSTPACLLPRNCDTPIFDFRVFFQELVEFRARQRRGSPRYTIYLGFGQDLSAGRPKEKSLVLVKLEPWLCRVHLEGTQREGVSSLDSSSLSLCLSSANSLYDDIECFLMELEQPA
Experiment: native gel or EMSA
Conditions: remark: other sources report otherwise

B1: endogenous IRF7 of HEK293 cells, Q92985 1-503 (natural protein)
chain: T1 chain
How did the stoichiometry N turn out when B1 was run?
The stoichiometry N was 2.

Source: paper PMC9694023
